Source: patent US20220332804A1 (CSL INNOVATION, published 2022)

Assays:
Test in all cases: SPR, antibody captured, C2 as analyte;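 also: biacore SPR at 37 °C, anti-C2 mAbs captured via goat anti-human IgG on CM5 chips, double-referenced sensorgrams fit to a 1:1 kinetic or steady-state model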
human C2 F689A = target: T1, human C2 F689A (human, UniProt P06681 21-752)
T1 sequence: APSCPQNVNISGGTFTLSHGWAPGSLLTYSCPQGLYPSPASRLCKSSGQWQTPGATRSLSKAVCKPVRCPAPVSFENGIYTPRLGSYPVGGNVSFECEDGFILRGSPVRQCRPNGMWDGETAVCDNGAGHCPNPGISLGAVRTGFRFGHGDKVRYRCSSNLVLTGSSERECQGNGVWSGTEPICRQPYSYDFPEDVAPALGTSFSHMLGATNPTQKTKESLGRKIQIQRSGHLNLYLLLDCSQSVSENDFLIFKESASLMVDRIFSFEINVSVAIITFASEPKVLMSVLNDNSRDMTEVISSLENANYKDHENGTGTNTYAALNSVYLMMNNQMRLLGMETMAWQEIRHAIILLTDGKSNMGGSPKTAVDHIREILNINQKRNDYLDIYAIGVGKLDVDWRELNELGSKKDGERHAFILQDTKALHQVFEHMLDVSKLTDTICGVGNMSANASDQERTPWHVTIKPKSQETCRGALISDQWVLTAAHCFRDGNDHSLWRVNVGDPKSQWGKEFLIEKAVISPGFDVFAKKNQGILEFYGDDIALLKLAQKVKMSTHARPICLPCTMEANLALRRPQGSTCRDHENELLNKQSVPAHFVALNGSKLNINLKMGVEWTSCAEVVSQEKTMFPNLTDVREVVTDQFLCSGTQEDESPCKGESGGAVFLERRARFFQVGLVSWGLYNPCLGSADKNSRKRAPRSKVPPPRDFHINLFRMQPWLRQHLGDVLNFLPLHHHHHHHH

human C2 E686A = target: T2, human C2 E686A (human, UniProt P06681 21-752)
T2 sequence: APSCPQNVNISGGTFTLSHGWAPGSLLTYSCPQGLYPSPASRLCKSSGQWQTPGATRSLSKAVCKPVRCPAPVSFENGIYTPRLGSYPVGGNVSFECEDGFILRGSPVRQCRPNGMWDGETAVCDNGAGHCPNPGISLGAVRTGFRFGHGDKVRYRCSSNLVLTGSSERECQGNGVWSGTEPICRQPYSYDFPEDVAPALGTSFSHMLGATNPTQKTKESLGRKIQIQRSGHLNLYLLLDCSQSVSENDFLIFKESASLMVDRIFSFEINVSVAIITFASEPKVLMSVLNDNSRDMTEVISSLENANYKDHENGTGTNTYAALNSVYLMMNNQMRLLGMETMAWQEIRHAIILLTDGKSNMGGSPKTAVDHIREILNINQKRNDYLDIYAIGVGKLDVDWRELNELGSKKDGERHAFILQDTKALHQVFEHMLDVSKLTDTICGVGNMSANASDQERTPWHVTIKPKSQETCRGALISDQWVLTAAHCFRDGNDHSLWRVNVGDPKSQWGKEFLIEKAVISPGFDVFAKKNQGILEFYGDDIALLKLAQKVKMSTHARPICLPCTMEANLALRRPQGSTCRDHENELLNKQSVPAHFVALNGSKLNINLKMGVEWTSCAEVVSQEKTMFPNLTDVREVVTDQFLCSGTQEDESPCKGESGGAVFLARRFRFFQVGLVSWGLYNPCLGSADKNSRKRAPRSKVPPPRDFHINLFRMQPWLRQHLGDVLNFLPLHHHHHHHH

human C2 E532A = target: T3, human C2 E532A (human, UniProt P06681 21-752)
T3 sequence: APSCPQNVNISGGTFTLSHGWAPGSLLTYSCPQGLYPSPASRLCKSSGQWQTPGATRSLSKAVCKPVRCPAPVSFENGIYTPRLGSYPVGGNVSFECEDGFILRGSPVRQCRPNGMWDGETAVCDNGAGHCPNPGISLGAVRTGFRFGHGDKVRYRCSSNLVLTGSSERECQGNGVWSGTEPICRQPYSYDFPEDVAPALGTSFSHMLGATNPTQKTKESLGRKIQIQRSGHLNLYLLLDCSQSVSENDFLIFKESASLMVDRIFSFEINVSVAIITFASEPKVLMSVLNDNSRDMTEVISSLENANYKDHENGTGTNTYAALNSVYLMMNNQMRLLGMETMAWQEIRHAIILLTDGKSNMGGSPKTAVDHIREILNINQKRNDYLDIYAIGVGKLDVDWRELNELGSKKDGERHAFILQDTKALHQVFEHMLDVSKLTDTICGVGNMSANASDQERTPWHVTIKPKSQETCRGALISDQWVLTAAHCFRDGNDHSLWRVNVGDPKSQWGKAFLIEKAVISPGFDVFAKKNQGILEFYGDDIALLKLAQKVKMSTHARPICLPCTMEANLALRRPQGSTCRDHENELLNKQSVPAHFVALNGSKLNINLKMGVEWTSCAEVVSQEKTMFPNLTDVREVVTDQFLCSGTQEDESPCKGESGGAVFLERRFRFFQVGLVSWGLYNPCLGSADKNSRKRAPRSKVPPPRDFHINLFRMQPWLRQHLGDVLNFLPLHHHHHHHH

human C2 G414A = target: T4, human C2 G414A (human, UniProt P06681 21-752)
T4 sequence: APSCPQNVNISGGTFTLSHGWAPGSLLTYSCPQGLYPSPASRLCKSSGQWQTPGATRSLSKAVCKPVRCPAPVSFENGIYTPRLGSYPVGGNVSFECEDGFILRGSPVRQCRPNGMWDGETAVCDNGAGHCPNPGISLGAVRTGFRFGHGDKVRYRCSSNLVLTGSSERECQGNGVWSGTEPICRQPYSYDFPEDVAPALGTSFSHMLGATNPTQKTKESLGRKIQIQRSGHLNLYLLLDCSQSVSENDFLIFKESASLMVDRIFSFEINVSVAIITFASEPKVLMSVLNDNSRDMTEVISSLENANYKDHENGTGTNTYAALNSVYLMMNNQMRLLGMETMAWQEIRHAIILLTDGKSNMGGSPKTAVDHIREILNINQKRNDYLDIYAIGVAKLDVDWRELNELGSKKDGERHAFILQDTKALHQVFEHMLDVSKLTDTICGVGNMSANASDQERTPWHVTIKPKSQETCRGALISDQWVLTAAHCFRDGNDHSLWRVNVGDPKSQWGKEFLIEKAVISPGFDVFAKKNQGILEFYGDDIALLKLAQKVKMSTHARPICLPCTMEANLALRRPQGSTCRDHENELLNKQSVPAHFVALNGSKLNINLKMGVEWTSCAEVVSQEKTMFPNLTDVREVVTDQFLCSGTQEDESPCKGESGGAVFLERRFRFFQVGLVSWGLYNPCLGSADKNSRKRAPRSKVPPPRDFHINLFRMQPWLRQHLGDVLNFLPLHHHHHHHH

B1: RF16-226 (antibody, human IgG4 S228P, lambda)
heavy: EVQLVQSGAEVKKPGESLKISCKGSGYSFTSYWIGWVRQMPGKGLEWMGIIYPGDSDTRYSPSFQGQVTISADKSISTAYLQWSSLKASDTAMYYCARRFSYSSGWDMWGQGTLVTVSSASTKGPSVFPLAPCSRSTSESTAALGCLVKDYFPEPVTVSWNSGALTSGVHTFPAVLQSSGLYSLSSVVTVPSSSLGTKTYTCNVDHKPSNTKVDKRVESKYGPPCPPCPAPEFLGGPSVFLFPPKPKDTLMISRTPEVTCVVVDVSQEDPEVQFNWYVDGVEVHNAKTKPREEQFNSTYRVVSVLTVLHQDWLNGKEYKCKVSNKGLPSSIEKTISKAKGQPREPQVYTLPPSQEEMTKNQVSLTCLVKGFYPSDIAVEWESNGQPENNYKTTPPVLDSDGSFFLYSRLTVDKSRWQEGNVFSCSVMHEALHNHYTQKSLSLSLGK
light: SYELTQPPSVSVSPGQTARITCSGDALTSKYVAWYQQKSGLAPLLVIYEDTRRPSGIPAKFSGSSSGSVATLTISGAHGDDEADYYCYSTDASGHQRVFGGGTKLTVLSQPKAAPSVTLFPPSSEELQANKATLVCLISDFYPGAVTVAWKADGSPVKAGVETTKPSKQSNNKYAASSYLSLTPEQWKSHRSYSCQVTHEGSTVEKTVAPTECS
notes: pH-dependent anti-C2 antibody from a phage display library; also called WT
B1 was tested, and the Kd (human C2 F689A) was 9.3 nM, the Kd (human C2 E686A) was 47.3 nM and the Kd (human C2 E532A) was 17.2 nM. For the same binder, the Kd (human C2 G414A) was 11.2 nM.
